T1: human Protein S (human, UniProt P07225 42-676)
T1 construct: also called ProS; ProS1
T1 sequence: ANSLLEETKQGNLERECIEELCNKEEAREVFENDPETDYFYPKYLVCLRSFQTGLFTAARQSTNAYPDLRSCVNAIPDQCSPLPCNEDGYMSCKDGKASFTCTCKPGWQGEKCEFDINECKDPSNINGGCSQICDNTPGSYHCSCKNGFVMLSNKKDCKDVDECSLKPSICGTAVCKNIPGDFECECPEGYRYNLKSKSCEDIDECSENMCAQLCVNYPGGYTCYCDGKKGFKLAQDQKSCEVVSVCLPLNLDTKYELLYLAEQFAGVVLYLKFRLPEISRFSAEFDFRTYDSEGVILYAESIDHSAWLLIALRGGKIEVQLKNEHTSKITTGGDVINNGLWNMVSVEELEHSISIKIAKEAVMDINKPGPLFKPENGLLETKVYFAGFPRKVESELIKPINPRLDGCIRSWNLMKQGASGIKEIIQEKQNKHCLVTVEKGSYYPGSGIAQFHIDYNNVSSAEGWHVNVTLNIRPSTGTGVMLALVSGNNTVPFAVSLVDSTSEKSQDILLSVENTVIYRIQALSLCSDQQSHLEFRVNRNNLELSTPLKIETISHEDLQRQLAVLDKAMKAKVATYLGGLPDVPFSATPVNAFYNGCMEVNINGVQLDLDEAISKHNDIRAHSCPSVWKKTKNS

T2: Protein S-C4BP complex (human, UniProt P04003 49-597; P20851 18-252)
T2 construct: Bought C4BP preparation that contains Protein S precomplexed to human C4BP; also called ProS-C4BP Complex; C4BP-Protein S complex
T2 sequence 1: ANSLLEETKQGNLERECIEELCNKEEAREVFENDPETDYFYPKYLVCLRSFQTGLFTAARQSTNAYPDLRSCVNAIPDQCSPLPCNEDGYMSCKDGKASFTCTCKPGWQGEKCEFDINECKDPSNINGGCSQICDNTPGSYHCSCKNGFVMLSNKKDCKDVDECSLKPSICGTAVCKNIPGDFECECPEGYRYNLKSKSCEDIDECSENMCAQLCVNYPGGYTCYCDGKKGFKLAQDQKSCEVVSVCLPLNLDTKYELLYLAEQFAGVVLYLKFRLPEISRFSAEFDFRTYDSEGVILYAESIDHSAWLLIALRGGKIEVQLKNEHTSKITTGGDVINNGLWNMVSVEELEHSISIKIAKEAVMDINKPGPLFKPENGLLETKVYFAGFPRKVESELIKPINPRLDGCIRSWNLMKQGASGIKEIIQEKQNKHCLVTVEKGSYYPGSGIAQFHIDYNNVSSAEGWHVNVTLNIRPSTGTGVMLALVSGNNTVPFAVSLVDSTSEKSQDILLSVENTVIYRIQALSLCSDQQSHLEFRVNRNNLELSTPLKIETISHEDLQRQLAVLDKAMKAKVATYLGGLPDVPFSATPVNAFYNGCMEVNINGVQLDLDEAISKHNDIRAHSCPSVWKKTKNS
T2 sequence 2: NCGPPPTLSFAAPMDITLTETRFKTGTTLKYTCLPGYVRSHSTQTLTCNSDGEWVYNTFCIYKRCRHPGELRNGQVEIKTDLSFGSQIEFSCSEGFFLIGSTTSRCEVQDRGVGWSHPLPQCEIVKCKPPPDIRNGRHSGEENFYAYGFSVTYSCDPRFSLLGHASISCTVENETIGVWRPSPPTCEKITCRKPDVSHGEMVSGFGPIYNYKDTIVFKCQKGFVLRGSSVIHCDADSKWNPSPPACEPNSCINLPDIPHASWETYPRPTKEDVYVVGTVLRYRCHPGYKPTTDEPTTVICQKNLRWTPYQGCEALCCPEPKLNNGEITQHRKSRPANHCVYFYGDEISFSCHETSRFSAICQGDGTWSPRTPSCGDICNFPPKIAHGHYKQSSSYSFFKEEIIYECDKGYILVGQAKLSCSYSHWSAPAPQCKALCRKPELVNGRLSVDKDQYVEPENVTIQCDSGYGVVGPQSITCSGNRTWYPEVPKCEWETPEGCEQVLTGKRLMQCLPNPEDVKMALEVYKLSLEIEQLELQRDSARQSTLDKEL
T2 sequence 3: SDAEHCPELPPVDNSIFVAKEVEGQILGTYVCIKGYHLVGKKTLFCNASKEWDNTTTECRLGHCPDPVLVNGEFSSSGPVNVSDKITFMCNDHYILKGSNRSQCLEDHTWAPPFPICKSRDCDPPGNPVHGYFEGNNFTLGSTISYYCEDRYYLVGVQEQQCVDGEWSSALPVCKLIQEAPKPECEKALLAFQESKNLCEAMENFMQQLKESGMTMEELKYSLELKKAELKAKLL

T3: recombinant heavy chain Protein S (amino acids 42-296) (human, UniProt P07225 42-296)
T3 construct: Expressed and purified from HEK293 cells; No tags are stated; also called heavy chain of Protein S; Protein S heavy chain
T3 sequence: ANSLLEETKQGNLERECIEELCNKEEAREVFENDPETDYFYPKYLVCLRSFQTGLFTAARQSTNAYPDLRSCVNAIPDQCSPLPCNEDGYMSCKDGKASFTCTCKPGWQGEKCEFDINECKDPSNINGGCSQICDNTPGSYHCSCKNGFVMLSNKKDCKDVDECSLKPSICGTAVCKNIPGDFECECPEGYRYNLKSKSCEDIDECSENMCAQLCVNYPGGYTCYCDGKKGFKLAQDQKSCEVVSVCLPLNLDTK

B1: Antibody 26 (antibody, human IgG4, V domains shown)
VH: EVQVVESGGGLVQPGGSLRLSCAASGFTLNSFWMSWVRQAPGKGLEWVANIKEDGSEKYYVDSVKGRFTISRDNAKNSLYLQMNGLRAEDTALYYCARETDILTAYYSDYYSYYGMDVWGQGTTVTVSA
VL: DIQMTQSPSSLSASVRDRVTINCRASQSIRSYLNWYQQKPGKAPKLLIYAASSLQGGVPSRFSGSGSGTDFTLTISSLQPEDFATYYCQQSYSTPRTFGQGTKVEIK
notes: also called Protein S Antibody with Human Fc; Combination 16
B2: Antibody 32 (antibody, V domains shown)
VH: EVQVVESGGGLVQPGGSLRLSCAASGFTLNSFWMSWVRQAPGKGLEWVANIKEDGSEKYYVDSVKGRFTISRDNAKNSLYLQMNGLRAEDTALYYCARETDILTAYYSDYYSYYGMDVWGQGTTVTVSA
VL: DIQMTQSPSSLSASVRDRVTINCRASQSIRSYLNWYQQKPGKAPKLLIYAASSLQGGVPSRFSGSGSGTDFTLTISSLQPEDFATYYCQQSYSTPRTFGQGTKVEIK
notes: Human variable region with a rat Fc domain; also called Protein S Antibody with Rat Fc; parental rat antibody of Antibody 26
B3: Antibody 5 (antibody, V domains shown)
VH: QVQLVQSGAEVKKPGASVKVSCKASGYTFTSYDINWVRQATGQGLEWMGWVNPNSDNIGYAQKFQGRVTMTRNTSISTAYMELSSLRSEDSAVYYCVRGAAAAWDAFAIWGQGTMVTVSS
VL: EIVMTQSPATLSVSPGERATLSCRASQSVGSNLAWYQQKPGQAPRLLIYGASTRATGGPARFSGSGSGTEFTLTISSLQSEDFAVYYCQQYNNWPLTFGGGTKVEIK
notes: also called Protein S Antibody with Human Fc; Combination 8
B4: Antibody 10 (antibody, human IgG4, V domains shown)
VH: EVQLLESGGGLVQPGGSLRLSCAASRFSFSSYAMSWVRQAPGKGLEWVSAISDSGSNTYYADSVKGLFTISRDNSKNTLYLQMNSLRAEDTAVYYCAKNYESGGYYTFFDYWGQGTLVTVST
VL: EIVMTQSPATLSVFPGERATLSCRASQSVRSNLAWHQQKLGQAPRLLLYGASTRATGIPARFSGSGSGTEFTLAISSLQSEDFAVYYCQQYNSWPFTFGGGTKVGIK
notes: also called Protein S Antibody with Human Fc; Combination 9
B5: Antibody 22 (antibody, V domains shown)
VH: EVQLLESGGGLVQPGGSLRLSCAASRFSFSSYAMSWVRQAPGKGLEWVSAISDSGSNTYYADSVKGLFTISRDNSKNTLYLQMNSLRAEDTAVYYCAKNYESGGYYTFFDYWGQGTLVTVST
VL: EIVMTQSPATLSVFPGERATLSCRASQSVRSNLAWHQQKLGQAPRLLLYGASTRATGIPARFSGSGSGTEFTLAISSLQSEDFAVYYCQQYNSWPFTFGGGTKVGIK
notes: Human variable region with a rat Fc domain; also called Protein S Antibody with Rat Fc; parental rat antibody of Antibody 10
B6: Antibody 17 (antibody, V domains shown)
VH: QVQLVQSGAEVKKPGASVKVSCKASGYTFTSYDINWVRQATGQGLEWMGWVNPNSDNIGYAQKFQGRVTMTRNTSISTAYMELSSLRSEDSAVYYCVRGAAAAWDAFAIWGQGTMVTVSS
VL: EIVMTQSPATLSVSPGERATLSCRASQSVGSNLAWYQQKPGQAPRLLIYGASTRATGGPARFSGSGSGTEFTLTISSLQSEDFAVYYCQQYNNWPLTFGGGTKVEIK
notes: Human variable region with a rat Fc domain; also called Protein S Antibody with Rat Fc; parental rat antibody of Antibody 5

Tests used:
human Protein S [1] = target: T1, human Protein S; experiment: BLI, Octet; antibody on anti-human Fc capture probes, Protein S 7.81-500 nM, 4 mM calcium chloride
Method: (§1) Binding affinities of the Protein S antibodies provided herein were also further characterized using the Octet System (Sartorius). The binding of each antibody to both human and cynomolgus monkey (“cyno”) Protein S was determined. The human Fc antibodies were immobilized onto anti-human Fc capture probes by placing the probes into 10 µg/ml antibody solution in 10 mg/ml bovine serum albumin, 20 mM Tris pH 7.0, 150 mM NaCl, and 4 mM calcium chloride. […] Next, the probes were placed into buffer and the dissociation rates were measured.

[2] = target: T4, cynomolgus monkey Protein S (cynomolgus monkey); experiment: as above
T4 construct: also called cyno Protein S
Method: as §1

Protein S-C4BP complex = target: T2, Protein S-C4BP complex; experiment: Octet BLI, antibody captured on anti-human Fc probes; a dash indicates that the binding did not occur
Method: The Octet assay was used to determine the capability of the Protein S antibodies provided herein to bind to Protein S either alone, or when complexed to C4BP.
Using the Octet System (Sartorius), the binding of each antibody to both Protein S and Protein S in complex with C4BP was determined. It had previously been determined that the C4BP preparation from Complement Technologies contains Protein S precomplexed to human C4BP. […] Then the bound antibodies were placed into solutions containing either 75 µg/ml Protein S or 100 µg/ml C4BP (C4BP-Protein S complex).

human Protein S [3] = target: T1, human Protein S; experiment: ELISA, plate coated with human Protein S, 1 µg/ml antibody, 1 mM calcium chloride
Method: (§2) Calcium dependence of binding was determined using an ELISA based method. Briefly, high binding ELISA plates were coated with human Protein S. Then, buffer containing 1 µg/ml of antibody was applied to the well with either buffer containing 1 mM EDTA or 1 mM calcium chloride. If the level of binding of Protein S was reduced ([…] of the absorbance observed in the presence of calcium) when EDTA was added, it was concluded that the binding was calcium-dependent.

[4] = target: T3, recombinant heavy chain Protein S …; experiment: ELISA on plate-coated recombinant Protein S heavy chain (aa 42-296), 1 mM calcium chloride
Method: (§3) Binding to the heavy chain of Protein S was determined using an ELISA based method. Briefly, high binding ELISA plates were coated with recombinant heavy chain Protein S expressed and purified from HEK293 cells. The “heavy chain” of Protein S represents a fragment of Protein S spanning amino acids 42-296. The coated plate was blocked with 1% casein solution. Then, buffer containing 1 µg/ml of antibody to be tested was applied to the well with buffer containing 1 mM calcium chloride.

[5] = target: T3, recombinant heavy chain Protein S …; experiment: ELISA, plate coated with recombinant Protein S heavy chain (aa 42-296), 1 µg/ml antibody, 1 mM calcium chloride
Method: as §3

human Protein S [6] = target: T1, human Protein S; experiment: ELISA, plate coated with human Protein S, 1 µg/ml antibody, 1 mM EDTA
Method: as §2

human Protein S [7] = target: T1, human Protein S; experiment: SPR, Biacore X100; antibody captured on anti-human IgG (Fc), purified Protein S 2-128 nM as analyte, HBS-EP + 5 mM CaCl2, 1:1 model
Method: Binding interaction analysis was obtained by Surface Plasmon Resonance in a Biacore X100 instrument. The human anti-IgG (Fc) antibody was immobilized to the carboxymethylated dextran membrane on the sensor chip surface (CM5) via the free amine method for a contact time of 420 seconds. Human anti-IgG antibody at 25 µg/mL in 0.15 M NaCl was immobilized to 9,785 RU in 10 mM sodium acetate pH 5.0. Each tested monoclonal antibody was captured at a fixed concentration (0.25 µg/mL) with immobilized human anti-IgG antibody.
The following experimental conditions were used: purified Protein S was injected at concentrations: 2-128 nM, 1:2-fold dilution. Dilution and running buffer were as follows: Hbs-EP + 5 mM CaCl₂. Regeneration was obtained by 3 M MgCl₂. Binding constants (ka, kd, and KD) were determined using the Biacore X100 evaluation software, assuming a 1:1 interaction of Protein S and the tested monoclonal antibody under investigation.

Row | Binder | Kd (human Protein S [1]) [nM] | koff (human Protein S [1]) [s⁻¹] | kon (human Protein S [1]) [M⁻¹ s⁻¹] | Kd [2] [nM] | koff [2] [s⁻¹] | kon [2] [M⁻¹ s⁻¹] | binding result (Protein S-C4BP complex) | Binding to Protein S in CaCl2 (OD) (human Protein S [3]) | binding result [4] | Binding to heavy chain (OD) [5] [OD] | Binding to Protein S in EDTA (OD) (human Protein S [6]) | Kd (human Protein S [7]) [nM] | koff (human Protein S [7]) [s⁻¹] | kon (human Protein S [7]) [M⁻¹ s⁻¹]
1 | B1 | 0.466 | 4.58e-05 | 98500 | 0.349 | 3.15e-05 | 90300 | no binding (tested: 100 µg/ml C4BP (C4BP-Protein S complex)) | – | – | – | – | – | – | –
2 | B2 | – | – | – | – | – | – | – | 0.82 | no binding | 0.1 | 0.33 | – | – | –
3 | B3 | 7.8 | 0.000493 | 63300 | 4.19 | 0.000283 | 67500 | – | – | – | – | – | 28 | 0.00227 | 81200
4 | B4 | 16.8 | 0.00213 | 127000 | 12.3 | 0.00132 | 107000 | no binding (tested: 100 µg/ml C4BP (C4BP-Protein S complex)) | – | – | – | – | 31 | 0.00514 | 167000
5 | B5 | – | – | – | – | – | – | – | 0.2 | no binding | 0.06 | 0.07 | – | – | –
6 | B6 | – | – | – | – | – | – | – | 0.54 | no binding | 0.07 | 0.39 | – | – | –

— patent publication US20230174672A1 (VEGA THERAPEUTICS, published 2023)
